From patent US20260167721A1 (ABLEXIS, published 2026) come the findings set out here.

The target in experiment [1] is T1, CD3 on human donor PBMC / Pan T effector cells (human, UniProt P07766 23-207; P09693 23-182; P04234 22-171; P20963 22-164). Nature of the experiment: cell-based or functional assay.
Experiment [2] has as its target T1, CD3 on human donor PBMC / Pan T …. In words: cell-based or functional assay. The source holds these as a separate data set.

T1 sequence (P07766 23-207, chain 1 of 4): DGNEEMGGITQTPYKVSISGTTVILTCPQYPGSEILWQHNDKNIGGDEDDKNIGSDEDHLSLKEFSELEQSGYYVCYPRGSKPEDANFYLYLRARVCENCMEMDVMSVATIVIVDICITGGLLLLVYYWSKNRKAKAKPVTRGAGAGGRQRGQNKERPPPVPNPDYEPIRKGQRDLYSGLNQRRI
T1 sequence (P09693 23-182, chain 2 of 4): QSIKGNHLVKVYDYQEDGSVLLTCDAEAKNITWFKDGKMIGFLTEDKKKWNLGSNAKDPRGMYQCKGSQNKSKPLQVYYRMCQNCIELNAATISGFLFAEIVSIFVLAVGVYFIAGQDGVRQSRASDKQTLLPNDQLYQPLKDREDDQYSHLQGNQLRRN
T1 sequence (P04234 22-171, chain 3 of 4): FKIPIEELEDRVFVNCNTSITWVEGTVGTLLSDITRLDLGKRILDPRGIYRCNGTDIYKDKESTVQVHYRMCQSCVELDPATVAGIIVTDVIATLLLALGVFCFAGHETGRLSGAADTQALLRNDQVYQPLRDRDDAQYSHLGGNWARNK
T1 sequence (P20963 22-164, chain 4 of 4): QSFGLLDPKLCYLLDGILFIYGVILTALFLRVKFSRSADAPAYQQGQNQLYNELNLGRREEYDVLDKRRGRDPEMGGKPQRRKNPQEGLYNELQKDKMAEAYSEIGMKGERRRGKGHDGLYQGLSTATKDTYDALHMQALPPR

B1: CD3 × CD33-BspAb86 (bispecific antibody)
chain 1: EVQLVESGGGLVKPGGSLRLSCAASGFTFSSYSMNWVRQAPGKCLEWVSSISRSGTYIYYADSVKGRFTISRDNAKNSLYLQMNSLRAEDTAVYYCARERWELLYFDYWGQGTLVTVSSGGGGSGGGGSGGGGSGGGGSQTVVTQEPSLTVSPGGTVTLTCASSTGAVTSGYYPNWFQQKPGQAPRALIYSTSNKHSWTPARFSGSLLGGKAALTLSGVQPEDEAEYYCLLYYGGAYVFGCGTKVTVLDKTHTCPPCPAPEFEGGPSVFLFPPKPKDTLMISRTPEVTCVVVDVSHEDPEVKFNWYVDGVEVHNAKTKPREEQYNSTYRVVSVLTVLHQDWLNGKEYKCKVSNKALPASIEKTISKAKGQPREPQVYTLPPCREEMTKNQVSLWCLVKGFYPSDIAVEWESNGQPENNYKTTPPVLDSDGSFFLYSKLTVDKSRWQQGNVFSCSVMHEALHNHYTQKSLSLSPGK
chain 2: EVQLVQSGAEVKKPGSSVKVSCKASGYTITDSNIHWVRQAPGQSLEWIGYIYPYNGGTDYNQKFKNRATLTVDNPTNTAYMELSSLRSEDTAFYYCVNGNPWLAYWGQGTLVTVSSASTKGPSVFPLAPSSKSTSGGTAALGCLVKDYFPEPVTVSWNSGALTSGVHTFPAVLQSSGLYSLSSVVTVPSSSLGTQTYICNVNHKPSNTKVDKRVEPKSCDKTHTCPPCPAPEFEGGPSVFLFPPKPKDTLMISRTPEVTCVVVDVSHEDPEVKFNWYVDGVEVHNAKTKPREEQYNSTYRVVSVLTVLHQDWLNGKEYKCKVSNKALPASIEKTISKAKGQPREPQVCTLPPSREEMTKNQVSLSCAVKGFYPSDIAVEWESNGQPENNYKTTPPVLDSDGSFFLVSKLTVDKSRWQQGNVFSCSVMHEALHNRFTQKSLSLSPGK
chain 3: DIQLTQSPSTLSASVGDRVTITCRASESLDNYGIRFLTWFQQKPGKAPKLLMYAASNQGSGVPSRFSGSGSGTEFTLTISSLQPDDFATYYCQQTKEVPWSFGQGTKVEVKRTVAAPSVFIFPPSDEQLKSGTASVVCLLNNFYPREAKVQWKVDNALQSGNSQESVTEQDSKDSTYSLSSTLTLSKADYEKHKVYACEVTHQGLSSPVTKSFNRGEC
Take B1: in experiment [1], the “Cytokine Release Assay (IL2) Donor 0 EC50” value was found to be 4.13 nM, the “Cytokine Release Assay (IL2) Donor 0 gMFI max” value was found to be 34400 gMFI, the “Cytokine Release Assay (IL2) Donor 1 EC50” value worked out at 4.24 nM and the “Cytokine Release Assay (IL2) Donor 1 gMFI max” value came to 18800 gMFI. Moreover, in experiment [1], the “Cytokine Release Assay (IL2) Donor 2 EC50” value turned out to be 6.46 nM, the “Cytokine Release Assay (IL2) Donor 2 gMFI max” value turned out to be 22100 gMFI, the “Cytokine Release Assay (IL2) Donor 3 EC50” value was found to be 3.52 nM and the “Cytokine Release Assay (IL2) Donor 3 gMFI max” value was found to be 42100 gMFI. For the same molecule, in experiment [2], the “Cytokine Release Assay (TNFα) Donor 0 EC50” value was 2.15 nM, the “Cytokine Release Assay (TNFα) Donor 0 gMFI max” value amounted to 34100 gMFI, the “Cytokine Release Assay (TNFα) Donor 1 gMFI max” value is 4900 gMFI and the “Cytokine Release Assay (TNFα) Donor 2 EC50” value was 2.19 nM. In experiment [2], the “Cytokine Release Assay (TNFα) Donor 2 gMFI max” value stood at 10900 gMFI, the “Cytokine Release Assay (TNFα) Donor 3 EC50” value amounted to 5.58 nM and the “Cytokine Release Assay (TNFα) Donor 3 gMFI max” value is 25200 gMFI.

B2: CD3 × CD33-BspAb90 (bispecific antibody)
chain 1: not shown
chain 2: B1 chain 2
chain 3: B1 chain 3
Turning to B2, in experiment [1], the “Cytokine Release Assay (IL2) Donor 0 EC50” value turned out to be 0.0887 nM, the “Cytokine Release Assay (IL2) Donor 0 gMFI max” value is 69600 gMFI, the “Cytokine Release Assay (IL2) Donor 1 EC50” value is 0.0832 nM and the “Cytokine Release Assay (IL2) Donor 1 gMFI max” value amounted to 24300 gMFI. In addition, in experiment [1], the “Cytokine Release Assay (IL2) Donor 2 EC50” value was found to be 0.0612 nM, the “Cytokine Release Assay (IL2) Donor 2 gMFI max” value amounted to 30000 gMFI and the “Cytokine Release Assay (IL2) Donor 3 gMFI max” value amounted to 79300 gMFI. Besides, in experiment [2], the “Cytokine Release Assay (TNFα) Donor 0 EC50” value is 0.136 nM, the “Cytokine Release Assay (TNFα) Donor 0 gMFI max” value came to 61700 gMFI, the “Cytokine Release Assay (TNFα) Donor 1 gMFI max” value was 5330 gMFI and the “Cytokine Release Assay (TNFα) Donor 2 EC50” value is 0.0788 nM. In experiment [2], the “Cytokine Release Assay (TNFα) Donor 2 gMFI max” value was found to be 16000 gMFI, the “Cytokine Release Assay (TNFα) Donor 3 EC50” value stood at 0.0724 nM and the “Cytokine Release Assay (TNFα) Donor 3 gMFI max” value was 32800 gMFI.

B3: CD3 × CD33-BspAb105 (bispecific antibody)
chain 1: SYELTQPPSVSVSPGQTARITCSGDALPKKYAYWYQQKSGQAPVLVIYEDSKRPSGIPERFSGSSSGTMATLTISGAQVEDEADYYCYSTDSSGNHRVFGCGTKLTVLGGGGSGGGGSGGGGSGGGGSEVQLVESGGGLVKPGGSLRLSCAASGFTFSYYSMNWVRQAPGKCLEWVSSISRSTTYIYYADSVKGRFTISRDNAKNSLYLQMNSLRAEDTAVYYCARDGKGAIFLDYWGQGTLVTVSSDKTHTCPPCPAPEFEGGPSVFLFPPKPKDTLMISRTPEVTCVVVDVSHEDPEVKFNWYVDGVEVHNAKTKPREEQYNSTYRVVSVLTVLHQDWLNGKEYKCKVSNKALPASIEKTISKAKGQPREPQVYTLPPCREEMTKNQVSLWCLVKGFYPSDIAVEWESNGQPENNYKTTPPVLDSDGSFFLYSKLTVDKSRWQQGNVFSCSVMHEALHNHYTQKSLSLSPGK
chain 2: B1 chain 2
chain 3: B1 chain 3
As for B3, in experiment [1], the “Cytokine Release Assay (IL2) Donor 0 EC50” value worked out at 0.454 nM, the “Cytokine Release Assay (IL2) Donor 0 gMFI max” value was 16900 gMFI, the “Cytokine Release Assay (IL2) Donor 1 EC50” value came out at 0.232 nM and the “Cytokine Release Assay (IL2) Donor 1 gMFI max” value is 13400 gMFI. In experiment [1], the “Cytokine Release Assay (IL2) Donor 2 gMFI max” value was found to be 15900 gMFI, the “Cytokine Release Assay (IL2) Donor 3 EC50” value is 0.141 nM and the “Cytokine Release Assay (IL2) Donor 3 gMFI max” value stood at 18000 gMFI. Besides, in experiment [2], the “Cytokine Release Assay (TNFα) Donor 0 gMFI max” value turned out to be 5210 gMFI, the “Cytokine Release Assay (TNFα) Donor 1 gMFI max” value worked out at 4470 gMFI, the “Cytokine Release Assay (TNFα) Donor 2 gMFI max” value stood at 5500 gMFI and the “Cytokine Release Assay (TNFα) Donor 3 gMFI max” value was 4390 gMFI.

B4: CD3 × CD33-BspAb94 (bispecific antibody)
chain 1: NFMLTQPHSVSESPGKTVTISCTRSSGSIASNYVQWYQQRPGSSPTTVIYEDNQRPSGVPDRFSGSIDSSSNSASLTISGLKTEDEADYYCQSYDSSNRVFGCGTKLTVLGGGGSGGGGSGGGGSGGGGSEVQLVESGGGLVKPGGSLRLSCAASGFTFSSYTMNWVRQAPGKCLEWVSSITTSSSYIYYADSVKGRFTISRDNAKNSLYLQMNSLRAEDTAVYYCARVTFDAFDIWGQGTMVTVSSDKTHTCPPCPAPEFEGGPSVFLFPPKPKDTLMISRTPEVTCVVVDVSHEDPEVKFNWYVDGVEVHNAKTKPREEQYNSTYRVVSVLTVLHQDWLNGKEYKCKVSNKALPASIEKTISKAKGQPREPQVYTLPPCREEMTKNQVSLWCLVKGFYPSDIAVEWESNGQPENNYKTTPPVLDSDGSFFLYSKLTVDKSRWQQGNVFSCSVMHEALHNHYTQKSLSLSPGK
chain 2: B1 chain 2
chain 3: B1 chain 3
As for B4, in experiment [1], the “Cytokine Release Assay (IL2) Donor 0 gMFI max” value was determined as 13600 gMFI, the “Cytokine Release Assay (IL2) Donor 1 EC50” value worked out at 3.58 nM, the “Cytokine Release Assay (IL2) Donor 1 gMFI max” value amounted to 14800 gMFI and the “Cytokine Release Assay (IL2) Donor 2 gMFI max” value is 12500 gMFI. For the same molecule, in experiment [1], the “Cytokine Release Assay (IL2) Donor 3 EC50” value was 1.47 nM and the “Cytokine Release Assay (IL2) Donor 3 gMFI max” value worked out at 13900 gMFI. In experiment [2], the “Cytokine Release Assay (TNFα) Donor 0 gMFI max” value came to 5150 gMFI, the “Cytokine Release Assay (TNFα) Donor 1 gMFI max” value stood at 4670 gMFI, the “Cytokine Release Assay (TNFα) Donor 2 gMFI max” value stood at 4420 gMFI and the “Cytokine Release Assay (TNFα) Donor 3 gMFI max” value was 4110 gMFI.
